From US20030037355
pKd: −log10 of the molar value.

Tests used:
[1] = molecular target: C7-VP64 three-finger activator (artificial) (UniProt P08046); assay: cell_activity; conditions: tobacco protoplasts, Reporter II pc7rbTATA; Reporter I 10 fold
[2] = test system: SID-2C7 six-finger repressor (artificial); assay: cell_activity; conditions: tobacco protoplasts; almost 2 fold in maize
[3] = test system: 2C7 six-finger zinc finger protein (artificial); conditions: CITED earlier work; cited from earlier work
[4] = test system: e2c six-finger zinc finger protein (artificial); conditions: CITED Beerli et al. 1998; cited from earlier work

Substance | activity (fold activation) [1] | activity (fold repression) [2] | pKd [3] | pKd [4]
GCGTGGGCGGCGTGGGCG (double strand) [2C7 binding site (six tandem repeats in reporters)] | 100 | 5 | 9.34 | 
e2c target site |  |  |  | 9.30
